Test results reported in paper PMC3867114, “Kinetic analysis of the interactions between plant thioredoxin and target proteins” (Frontiers in Plant Science, 2013).

Assays:
[1] = molecular target: Trxh1 mutant with a C43S substitution (Arabidopsis thaliana) (UniProt P29448); test: SPR; Biacore X, 25°C; Trx variant immobilised as ligand on a CM5 chip by amine coupling (800–900 RU); target protein injected as analyte; H buffer (10 mM HEPES-NaOH, 150 mM NaCl, 50 μM EDTA, pH 7.4) with 0.005% Surfactant P20; 1:1 model for MDH, double exponential model for PrxQ; apparent (mixed disulfide formation with Trxh1CS)
[2] = molecular target: the molecule itself; test: SEC; TSK-G2000SWXL in H buffer, 280 nm; as a2 but without NEM treatment before the chromatography (for MDH: second round of the fractionated complex)
[3] = molecular target: the molecule itself; test: mixed disulfide complex formation, non-reducing SDS-PAGE with N-terminal sequencing; 50 μM Trxh1CS and 50 μM PrxQ incubated for the periods indicated, quenched with 5% TCA, non-reducing SDS-PAGE

| Binder | koff [1] | kon [1] | binding result [2] | binding result [3] |
| --- | --- | --- | --- | --- |
| Arabidopsis thaliana cytosolic malate dehydrogenase, oxidized form (enzyme, UniProt P93819 1-332, looked up, Cys330–Cys330 intermolecular disulfide bond (oxidized form), cytosolic malate dehydrogenase (MDH), Arabidopsis thaliana, AT1G04410; also called MDH; oxidized MDH; source: cloned and purified as described in earlier work; oxidized by incubation with 50 μM CuCl2 for 1 h at 30°C) MAKEPVRVLVTGAAGQIGYALVPMIARGIMLGADQPVILHMLDIPPAAEALNGVKMELIDAAFPLLKGVVATTDAVEGCTGVNVAVMVGGFPRKEGMERKDVMSKNVSIYKSQAAALEKHAAPNCKVLVVANPANTNALILKEFAPSIPEKNISCLTRLDHNRALGQISERLSVPVSDVKNVIIWGNHSSSQYPDVNHAKVQTSSGEKPVRELVKDDAWLDGEFISTVQQRGAAIIKARKLSSALSAASSACDHIRDWVLGTPEGTFVSMGVYSDGSYSVPSGLIYSFPVTCRNGDWSIVQGLPIDEVSRKKMDLTAEELKEEKDLAYSCLS | 0.000301 s⁻¹ | 247 M⁻¹ s⁻¹ | binds | – |
| Trxh1 mutant with a C43S substitution (natural protein, Arabidopsis thaliana, UniProt P29448 1-114, looked up, thioredoxin h1 (Trxh1), cytosolic, Arabidopsis thaliana, AT3G51030, with C43S; Lacks the second cysteine of the catalytic motif; also called Trxh1CS; Trxh1CS mutant; source: expressed and purified as the wild-type Trxh1, with 0.5 mM DTT in all purification procedures) MASEEGQVIACHTVETWNEQLQKANESKTLVVVDFTASWCGPSRFIAPFFADLAKKLPNVLFLKVDTDELKSVASDWAIQAMPTFMFLKEGKILDKVVGAKKDELQSTIAKHLA | – | – | – | binds |
